Results: US20200179236A1, “METHOD AND PRODUCT FOR CARIES TREATMENT” (Credentis AG, priority 2016, published 2020)
Where no end group is shown, it is not given here.

How the values were obtained:
[1] = pH at which the peptide starts to undergo self-assembly; type: physicochemical
Description: Particular self-assembling peptides for use according to the invention are selected such that they are in self-assembled form when the pH of their environment is below a certain pH, e.g. below pH 7.5, e.g., at physiological ionic strength. The pH at which preferred self-assembling peptides of the invention undergo self-assembly is below 7.5, preferably below 7.2, more preferably below 7.0. For example, the pH at which the self-assembling peptide P11-4 (SEQ ID NO:1) and terminally modified P11-4 (SEQ ID NO:2) start to undergo self-assembly is about 7.5. This means that the self-assembling peptides start to self-assemble to a significant extent when the pH drops below 7.5.
As used herein, the pH at which the self-assembling peptide starts to undergo self-assembly refers to the pH below which a significant extent of self-assembly of the peptides in solution is observed, which means that at least about 25%, about 30%, about 35%, about 40%, about 45%, about 50%, about 55%, about 60%, about 65%, about 70%, about 75%, about 80%, about 85%, about 90%, about 95%, about 99% or even about 100% of the peptides found in the dental care product are assembled. In a preferred embodiment, at least about 25% of the peptides found in the dental care product are assembled below the pH at which the peptide starts to undergo self-assembly. […]

[2] = Self-assembling kinetic of P11-4 by measurements of elastic modulus G′; type: physicochemical; details: 15 mg/ml, neutral pH, 37° C., 0.1% strain, 1 rad/second; independent of ionic strength
Description: P11-4 was prepared at 15 mg/ml with different buffer compositions (see below) measured at 0.1% strain, 37° C. and a frequency of 1 rad/second. Self-assembly of peptide monomers to polymers takes more than 5 min independent of the used ionic strength at neutral pH.
Squares (top line of symbols) —NaCl: Tris (0.055 M)+NaCl, final ionic strength 142 mM;
Artifical saliva (second line of symbols from top): Tris, Ca(NO3)2, KH2PO4 (ratio 0.77:0.14: 0.08), ionic strength 142 mM;
Dulbecco's Modified Eagle Medium (DMEM): NaCl, NaHCO3,KCl,CaCl2, MgSO4 (ratio 0.66:0.4:0.05: 0.02:0.007), ionic strength 165 mM; MgSO4: 0.055 M Tris+0.192 M MgSO4 0.14 M Ionic strength

Substance	pH at which the peptide starts to undergo self-assembly [1]	time of self-assembly of peptide monomers to polymers [2]
CH3CO-QQRFEWEFEQQ-NH2 (Ac-QQRFEWEFEQQ-NH2) [terminally modified P11-4]	about 7.5	–
QQRFEWEFEQQ	about 7.5	more than 5 min
